# From patent US20180231548
# T1: Methyl Red (MR)-AAPV-NBD-UBI29-41
# T1 chain: AAPVKTGRAKRRMQYNRR
# B1: human neutrophil elastase (protein)
# chain: IVGGRRARPHAWPFMVSLQLRGGHFCGATLIAPNFVMSAAHCVANVNVRAVRVVLGAHNLSRREPTRQVFAVQRIFENGYDPVNLLNDIVILQLNGSATINANVQVAQLPAQGRRLGNGVQCLAMGWGLLGRNRGIASVLQELNVTVVTSLCRRSNVCTLVRGRQAGVCFGDSGSPLVCNGLIHGIASFVRGGCASGLYPDAFAPVAQFVNWIDSIIQ
# Key:
# [1] = molecular target: T1, Methyl Red (MR)-AAPV-NBD-UBI29-41
protein,measurement,setting,value
B1,fluorescence of the cleaved TAMRA compound (spectrophotometer) and NBD labelling of bacteria after cleavage,TAMRA-AAPV-NBD-PMX,the fluorescence of the cleaved TAMRA compound increases in an elastase dependent manner and are inhibited with an elastase inhibitor such as sivelestat
same,bacterial labelling by NBD after cleavage of the probe; confocal images of a co-culture of bacteria and human neutrophils,[1],These images confirm the ability of the probe to be cleaved by neutrophil derived HNE and to label bacteria
